{
  "source": "patent US20120014911",
  "key": {"[1]": {"biological_target": "T1, GST-IFNAR1 (wild type): bacterially expressed cytoplasmic domain of IFNAR1 fused with GST (UniProt P17181)", "T1 sequence": "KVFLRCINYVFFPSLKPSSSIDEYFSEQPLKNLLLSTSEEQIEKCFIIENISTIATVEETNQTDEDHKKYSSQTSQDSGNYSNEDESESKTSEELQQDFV"}, "[2]": {"biological_target": "T2, recombinant PKD2 used as substrate of Tyk2 and Src (UniProt Q9BZL6)", "T2 sequence": "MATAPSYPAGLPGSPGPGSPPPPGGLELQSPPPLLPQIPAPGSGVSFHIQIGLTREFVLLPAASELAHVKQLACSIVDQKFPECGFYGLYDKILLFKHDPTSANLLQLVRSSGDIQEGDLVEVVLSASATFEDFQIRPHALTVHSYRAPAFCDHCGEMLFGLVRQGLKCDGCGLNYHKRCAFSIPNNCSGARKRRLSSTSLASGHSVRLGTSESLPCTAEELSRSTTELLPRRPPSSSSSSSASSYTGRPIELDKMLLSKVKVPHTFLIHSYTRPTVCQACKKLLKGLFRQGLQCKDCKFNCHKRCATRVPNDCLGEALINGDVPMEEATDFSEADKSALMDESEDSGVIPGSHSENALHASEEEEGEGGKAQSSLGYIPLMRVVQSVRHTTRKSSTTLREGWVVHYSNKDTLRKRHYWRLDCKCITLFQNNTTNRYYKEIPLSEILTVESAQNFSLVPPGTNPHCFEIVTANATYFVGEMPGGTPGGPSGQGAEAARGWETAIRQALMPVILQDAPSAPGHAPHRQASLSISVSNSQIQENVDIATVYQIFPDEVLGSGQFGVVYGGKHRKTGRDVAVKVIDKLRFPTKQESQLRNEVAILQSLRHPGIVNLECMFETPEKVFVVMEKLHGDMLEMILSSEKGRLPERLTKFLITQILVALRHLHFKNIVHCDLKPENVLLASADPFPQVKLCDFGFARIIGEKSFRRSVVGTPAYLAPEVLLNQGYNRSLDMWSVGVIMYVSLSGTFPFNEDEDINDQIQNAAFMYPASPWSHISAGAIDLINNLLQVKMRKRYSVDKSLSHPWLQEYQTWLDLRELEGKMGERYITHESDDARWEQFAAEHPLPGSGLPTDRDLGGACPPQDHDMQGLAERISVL"}, "[3]": {"test_system": "purified recombinant Nrf2-Neh2 domain T80A"}, "[4]": {"test_system": "purified recombinant Nrf2-Neh2 domain S40A"}, "[5]": {"test_system": "purified recombinant Nrf2-Neh2 domain (wild type)"}},
  "data": [
    {"substance": "GST-tagged PKD2 kinase-dead K580N mutant", "values": [
      {"measurement": "in vitro phosphorylation of GST-IFNAR1 on Ser535 (immunoblot with anti-pS535)", "setting": "[1]", "value": "Ser535 phosphorylation on GST-IFNAR1 incubated with ATP and GST-PKD2 was not evident when a catalytically deficient (kinase-dead, KD) K580N mutant was used in the reaction"}
    ]},
    {"substance": "Myc-tagged human CK1δ immunopurified from 293T cells", "values": [
      {"measurement": "immunokinase assay: phosphorylation of GST-IFNAR1 on Ser535", "setting": "[1]", "value": "immunopurified human CK18, CK1E, and protozoan parasite L-CK1 were active against IFNAR1S535 in the immunokinase assay in vitro"}
    ]},
    {"substance": "recombinant Src (purchased from Cell Signaling)", "values": [
      {"measurement": "in vitro tyrosine phosphorylation of PKD2 (immunoblot with anti-phospho-Tyr antibody)", "setting": "[2]", "value": "tyrosine phosphorylation of PKD2 was easily detected when recombinant Sre protein was used as positive control"}
    ]},
    {"substance": "HA-tagged Leishmania major CK1 (L-CK1) immunopurified from 293T cells", "values": [
      {"measurement": "immunokinase assay: phosphorylation of GST-IFNAR1 on Ser535", "setting": "[1]", "value": "immunopurified human CK18, CK1E, and protozoan parasite L-CK1 were active against IFNAR1S535 in the immunokinase assay in vitro"}
    ]},
    {"substance": "recombinant bacterially produced constitutively active ΔN-PERK", "values": [
      {"measurement": "in vitro kinase assay, autoradiography", "setting": "[3]", "value": "mutation of threonine 80 to alanine abrogated phosphorylation"},
      {"measurement": "in vitro kinase assay, autoradiography", "setting": "[4]", "value": "Purified recombinant PERK phosphorylated wild type Nrf2-Neh2 and a serine 40 to alanine mutant; however, mutation of threonine 80 to alanine abrogated phosphorylation"},
      {"measurement": "in vitro kinase assay, autoradiography", "setting": "[5]", "value": "Purified recombinant PERK phosphorylated wild type Nrf2-Neh2 and a serine 40 to alanine mutant; however, mutation of threonine 80 to alanine abrogated phosphorylation"},
      {"measurement": "in vitro kinase assay", "setting": "[1]", "value": "activated PERK was not capable of phosphorylating IFNAR1 in vitro"}
    ]},
    {"substance": "bacterially produced recombinant GST-CK1α", "values": [
      {"measurement": "in vitro phosphorylation of GST-IFNAR1 on Ser535 and Ser532 (immunoblot with phospho-specific antibodies)", "setting": "[1]", "value": "Incubation of recombinant CKla with wild type GST-IFNAR1 substrate and ATP in vitro resulted in phosphorylation of Ser535 but not of Ser532"}
    ]},
    {"substance": "HA-tagged Tyk2 immunopurified from cells", "values": [
      {"measurement": "in vitro tyrosine phosphorylation of PKD2 (immunoblot with anti-phospho-Tyr antibody)", "setting": "[2]", "value": "A robust increase in Tyr phosphorylation of PKD2 was seen when HA-Tyk2 was purified from IFN-a-treated cells"}
    ]}
  ]
}
